Assay results as given in US11278600B2, “Human alpha-galactosidase variants” (Codexis, Inc., priority 2014, dated 2022).

Key:
Format in all cases: biochemical
[1] = HTP-analysis of supernatants pretreated with base (MUGal hydrolysis); conditions: challenge at pH 7.1; activity of the variant/activity of WT GLA (SEQ ID NO: 5); yeast supernatant
How it was run: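 GLA variants secreted from yeast INVSc1; culture supernatants pre-incubated with McIlvaine buffer pH 7.0–8.2 or 200 mM bicarbonate pH 9.1–9.7 at 37° C. for 1–18 h. Residual activity: MUGal (4 mM stock) hydrolysis at pH 4.3–4.8, 37° C., 30–180 min, carbonate quench; fluorescence Ex 355/Em 448 nm.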

[2] = HTP-analysis of supernatants pretreated with acid (MUGal hydrolysis); conditions: challenge at pH 4.2; activity of the variant/activity of WT GLA (SEQ ID NO: 5); yeast supernatant
How it was run: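 Fluorescence of MUGal hydrolysis (Ex. 355 nm, Em. 448 nm) is read after sodium carbonate quench. The enzyme source is INVSc1 yeast culture supernatant, first exposed to pH 3.3-4.3 McIlvaine buffer at 37° C. for 1-3 h, then reacted at pH 4.8 for 30-180 minutes.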

[3] = HTP-analysis of yeast culture supernatants, no challenge (MUGal hydrolysis); conditions: activity of the variant/activity of WT GLA (SEQ ID NO: 5), yeast supernatant
How it was run: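 GLA variants expressed in yeast INVSc1, secreted into SD-Ura broth over 66-84 h at 30° C; clarified supernatants tested without challenge. Supernatant mixed with McIlvaine buffer pH 4.8 and 2 mM MUGal (citrate/KCl, pH 4.6), 37° C for 30-180 min, carbonate-quenched, fluorescence Ex 355/Em 448 nm.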

Row | Molecule | Relative Activity of GLA Variants After Challenge at pH 7.1 [1] | Relative Activity of GLA Variants After Challenge at pH 4.2 [2] | Relative Activity of GLA Variants After No Challenge (NC) [3]
1 | 59 (protein, Synthetic Polypeptide sequence of Variant No. 59 of mature Human GLA) LDNGLARTPTMGWLHWERFMCNLDCQEEPDSCISEKLFMEMAELMVSEGWKDAGYEYLCIDDCWMAPQRDSEGRLQADPQRFPHGIRQLANYVHSKGLKLGIYADVGNKTCAGFPGSFGYYDIDAQTFADWGVDLLKFDGCYCDSLENLADGYKHMSLALNRTGRSIVYSCEWPLYMWPFQKPNYTEIRQYCNHWRNFADIDDSWKSIKSILDWTSFNQERIVDVAGPGGWNDPDMLVIGNFGLSWNQQVTQMALWAIMAAPLFMSNDLRHISPQAKALLQDKDVIAINQDPLGKQGYQLRQGDNFEVWERPLSGLAWAVAMINRQEIGGPRSYTIAVASLGKGVACNPACFITQLLPVKRKLGRYEWTSRLRSHINPTGTVLLQLENTMQMSKDLLL | + (+ = 0.5 to 1.5 relative activity over WT GLA (SEQ ID NO: 5)) | + (+ = 0.5 to 1.5 relative activity over WT GLA (SEQ ID NO: 5)) | + (+ = 0.5 to 1.5 relative activity over WT GLA (SEQ ID NO: 5))
2 | 61 (protein, Synthetic Polypeptide sequence of Variant No. 61 of mature Human GLA) LDNGLARTPTMGWLHWERFMCNLDCQEEPDSCISEKLFMEMAELMVSEGWKDAGYEYLCIDDCWMAPQRDSEGRLQADPQRFPHGIRQLANYVHSKGLKLGIYADVGNKTCAGFPGSFGYYDIDAQTFADWGVDLLKFDGCYCDSLENLADGYKHMSLALNRTGRSIVYSCEWPLYMWPFQKPNYTEIRQYCNHWRNFADIDDSWKSIKSILDWTSFNQERIVDVAGPGGWNDPDMLVIGNFGLSWNQQVTQMALWAIMAAPLFMSNDLRHISPQAKALLQDKDVIAINQDPLGKQGYQLRQGDNFEVWERPLSGLAWAVAMINRQEIGGPRSYTIAVASLGKGVACNPACFITQLLPVKRKLGVYEWTSRLRSHINPTGTVLLQLENTMQMSKDLLL | ++ (++ = >1.5 to 2.5 relative activity over WT GLA (SEQ ID NO: 5)) | ++ (++ = >1.5 to 2.5 relative activity over WT GLA (SEQ ID NO: 5)) | ++ (++ = >1.5 to 2.5 relative activity over WT GLA (SEQ ID NO: 5))
3 | 63 (protein, Synthetic Polypeptide sequence of Variant No. 63 of mature Human GLA) LDNGLARTPTMGWLHWERFMCNLDCQEEPDSCISEKLFMEMAELMVSEGWKDAGYEYLCIDDCWMAPQRDSEGRLQADPQRFPHGIRQLANYVHSKGLKLGIYADVGNKTCAGFPGSFGYYDIDAQTFADWGVDLLKFDGCYCDSLENLADGYKAMSLALNRTGRSIVYSCEWPLYMWPFQKPNYTEIRQYCNHWRNFADIDDSWKSIKSILDWTSFNQERIVDVAGPGGWNDPDMLVIGNFGLSWNQQVTQMALWAIMAAPLFMSNDLRHISPQAKALLQDKDVIAINQDPLGKQGYQLRQGDNFEVWERPLSGLAWAVAMINRQEIGGPRSYTIAVASLGKGVACNPACFITQLLPVKRKLGFYEWTSRLRSHINPTGTVLLQLENTMQMSKDLLL | ++ (++ = >1.5 to 2.5 relative activity over WT GLA (SEQ ID NO: 5)) | + (+ = 0.5 to 1.5 relative activity over WT GLA (SEQ ID NO: 5)) | + (+ = 0.5 to 1.5 relative activity over WT GLA (SEQ ID NO: 5))
4 | 64 (protein, Synthetic Polypeptide sequence of Variant No. 64 of mature Human GLA) LDNGLARTPTMGWLHWERFMCNLDCQEEPDSCISEKLFMEMAELMVSEGWKDAGYEYLCIDDCWMAPQRDSEGRLQADPQRFPHGIRQLANYVHSKGLKLGIYADVGNKTCAGFPGSFGYYDIDAQTFADWGVDLLKFDGCYCDSLENLADGYKLMSLALNRTGRSIVYSCEWPLYMWPFQKPNYTEIRQYCNHWRNFADIDDSWKSIKSILDWTSFNQERIVDVAGPGGWNDPDMLVIGNFGLSWNQQVTQMALWAIMAAPLFMSNDLRHISPQAKALLQDKDVIAINQDPLGKQGYQLRQGDNFEVWERPLSGLAWAVAMINRQEIGGPRSYTIAVASLGKGVACNPACFITQLLPVKRKLGFYEWTSRLRSHINPTGTVLLQLENTMQMSKDLLL | ++ (++ = >1.5 to 2.5 relative activity over WT GLA (SEQ ID NO: 5)) | + (+ = 0.5 to 1.5 relative activity over WT GLA (SEQ ID NO: 5)) | + (+ = 0.5 to 1.5 relative activity over WT GLA (SEQ ID NO: 5))
5 | 66 (protein, Synthetic Polypeptide sequence of Variant No. 66 of mature Human GLA) LDNGLARTPTMGWLHWERFMCNLDCQEEPDSCISEKLFMEMAELMVSEGWKDAGYEYLCIDDCWMAPQRDSEGRLQADPQRFPHGIRQLANYVHSKGLKLGIYADVGNKTCAGFPGSFGYYDIDAQTFADWGVDLLKFDGCYCDSLENLADGYKTMSLALNRTGRSIVYSCEWPLYMWPFQKPNYTEIRQYCNHWRNFADIDDSWKSIKSILDWTSFNQERIVDVAGPGGWNDPDMLVIGNFGLSWNQQVTQMALWAIMAAPLFMSNDLRHISPQAKALLQDKDVIAINQDPLGKQGYQLRQGDNFEVWERPLSGLAWAVAMINRQEIGGPRSYTIAVASLGKGVACNPACFITQLLPVKRKLGFYEWTSRLRSHINPTGTVLLQLENTMQMSKDLLL | + (+ = 0.5 to 1.5 relative activity over WT GLA (SEQ ID NO: 5)) | + (+ = 0.5 to 1.5 relative activity over WT GLA (SEQ ID NO: 5)) | + (+ = 0.5 to 1.5 relative activity over WT GLA (SEQ ID NO: 5))
6 | 65 (protein, Synthetic Polypeptide sequence of Variant No. 65 of mature Human GLA) LDNGLARTPTMGWLHWERFMCNLDCQEEPDSCISEKLFMEMAELMVSEGWKDAGYEYLCIDDCWMAPQRDSEGRLQADPQRFPHGIRQLANYVHSKGLKLGIYADVGNKTCAGFPGSFGYYDIDAQTFADWGVDLLKFDGCYCDSLENLADGYKRMSLALNRTGRSIVYSCEWPLYMWPFQKPNYTEIRQYCNHWRNFADIDDSWKSIKSILDWTSFNQERIVDVAGPGGWNDPDMLVIGNFGLSWNQQVTQMALWAIMAAPLFMSNDLRHISPQAKALLQDKDVIAINQDPLGKQGYQLRQGDNFEVWERPLSGLAWAVAMINRQEIGGPRSYTIAVASLGKGVACNPACFITQLLPVKRKLGFYEWTSRLRSHINPTGTVLLQLENTMQMSKDLLL | + (+ = 0.5 to 1.5 relative activity over WT GLA (SEQ ID NO: 5)) | + (+ = 0.5 to 1.5 relative activity over WT GLA (SEQ ID NO: 5)) | + (+ = 0.5 to 1.5 relative activity over WT GLA (SEQ ID NO: 5))
7 | 62 (protein, Synthetic Polypeptide sequence of Variant No. 62 of mature Human GLA) LDNGLARTPTMGWLHWERFMCNLDCQEEPDSCISEKLFMEMAELMVSEGWKDAGYEYLCIDDCWMAPQRDSEGRLQADPQRFPHGIRQLANYVHSKGLKLGIYADVGNKTCAGFPGSFGYYDIDAQTFADWGVDLLKFDGCYCDSLENLADGYKHMSLALNRTGRSIVYSCEWPLYMWPFQKPNYTEIRQYCNHWRNFADIDDSWKSIKSILDWTSFNQERIVDVAGPGGWNDPDMLVIGNFGLSWNQQVTQMALWAIMAAPLFMSNDLRHISPQAKALLQDKDVIAINQDPLGKQGYQLRQQDNFEVWERPLSGLAWAVAMINRQEIGGPRSYTIAVASLGKGVACNPACFITQLLPVKRKLGFYEWTSRLVSHINPTGTVLLQLENTMQMSKDLLL | ++ (++ = >1.5 to 2.5 relative activity over WT GLA (SEQ ID NO: 5)) | + (+ = 0.5 to 1.5 relative activity over WT GLA (SEQ ID NO: 5)) | ++ (++ = >1.5 to 2.5 relative activity over WT GLA (SEQ ID NO: 5))
8 | 60 (protein, Synthetic Polypeptide sequence of Variant No. 60 of mature Human GLA) LDNGLARTPTMGWLHWERFMCNLDCQEEPDSCISEKLFMEMAELMVSEGWKDAGYEYLCIDDCWMAPQRDSEGRLQADPQRFPHGIRQLANYVHSKGLKLGIYADVGNKTCAGFPGSFGYYDIDAQTFADWGVDLLKFDGCYCDSLENLADGYKHMSLALNRTGRSIVYSCEWPLYMWPFQKPNYTEIRQYCNHWRNFADIDDSWKSIKSILDWTSFNQERIVDVAGPGGWNDPDMLVIGNFGLSWNQQVTQMALWAIMAAPLFMSNDLRHISPQAKALLQDKDVIAINQDPLGKQGYQLRQGDNFEVWERPLSGLAWAVAMINRQEIGGPRSYTIAVASLGKGVACNPACFITQLLPVKRKLGTYEWTSRLRSHINPTGTVLLQLENTMQMSKDLLL | + (+ = 0.5 to 1.5 relative activity over WT GLA (SEQ ID NO: 5)) | + (+ = 0.5 to 1.5 relative activity over WT GLA (SEQ ID NO: 5)) | + (+ = 0.5 to 1.5 relative activity over WT GLA (SEQ ID NO: 5))
